According to article PMC8405996, “A structurally preserved allosteric site in the MIF superfamily affects enzymatic activity and CD74 activation in D-dopachrome tautomerase” (The Journal of Biological Chemistry, 2021):

Target: the molecule itself
Experiment: crystal structure; hanging-drop vapor diffusion at 20 °C; diffraction data at 100 K; molecular replacement; trimer of MIF-2 in the crystal

| Protein | stoichiometry N | binding result |
| --- | --- | --- |
| D-dopachrome tautomerase (MIF-2), wild type (enzyme, human, UniProt P30046 1-118, looked up, human D-dopachrome tautomerase (MIF-2), monomer of 117 amino acids with the catalytic Pro1 at the N terminus (initiating Met removed); Homotrimer; no tag is named; also called wt-MIF-2; DDT; source: E. coli BL21-Gold (DE3), purified (Q-Sepharose, Superdex 75)) MPFLELDTNLPANRVPAGLEKRLCAAAASILGKPADRVNVTVRPGLAMALSGSTEPCAQLSISSIGVVGTAEDNRSHSAHFFEFLTKELALGQDRILIRFFPLESWQIGKIGTVMTFL | 3 |  |
| MIF-2 P1G variant (enzyme, human, UniProt P30046 1-118, looked up, human D-dopachrome tautomerase (MIF-2) with P1G; the initiating Met was found kept in this variant (not cleaved in E. coli), so the chain begins Met-Gly1; also called P1G MIF-2; source: E. coli BL21-Gold (DE3), purified (Q-Sepharose, Superdex 75)) MGFLELDTNLPANRVPAGLEKRLCAAAASILGKPADRVNVTVRPGLAMALSGSTEPCAQLSISSIGVVGTAEDNRSHSAHFFEFLTKELALGQDRILIRFFPLESWQIGKIGTVMTFL |  | binds |
